According to paper PMC7102968:

Biological target: TetR-Y42A Y42A;C68S;C88N;C121T;C144S;internal_change (UniProt P04483)
Assay: ITC
Settings: ITC: 20 mM potassium phosphate pH 7.4, 50 mM NaCl, 25 C; EMSA: 50 mM Tris-HCl pH 8.0, 10 mM MgCl2, 25 mM NaCl, 25 ug/ml yeast tRNA, room temperature; SEC …

With “GGCCGGAGAAUGUUAUGGCGCGAAAGCGCAGAGAAAACCGGUC [TetR-binding aptamer K1]” as the sequence, how does the Kd read?
The Kd was 13.9 µM.
